The target in assay [1] is sfGFP-SpyTag003 Loop A. Put plainly: isopeptide bond formation, SDS-PAGE densitometry; reference SpyTag003 as a terminal fusion with SpyCatcher003.
Assay [2] deals with sfGFP-SpyTag003 Loop A. Description: isopeptide bond formation, 5 µM each, PBS pH 7.5, 25 °C, SDS-PAGE densitometry.
The target in assay [3] is Gre2p-SpyTag003 Loop B (Saccharomyces cerevisiae) (UniProt Q12068). The description is as above.
UniProt Q12068, sequence (Q12068 other isoform, or with tags, fused parts or gaps): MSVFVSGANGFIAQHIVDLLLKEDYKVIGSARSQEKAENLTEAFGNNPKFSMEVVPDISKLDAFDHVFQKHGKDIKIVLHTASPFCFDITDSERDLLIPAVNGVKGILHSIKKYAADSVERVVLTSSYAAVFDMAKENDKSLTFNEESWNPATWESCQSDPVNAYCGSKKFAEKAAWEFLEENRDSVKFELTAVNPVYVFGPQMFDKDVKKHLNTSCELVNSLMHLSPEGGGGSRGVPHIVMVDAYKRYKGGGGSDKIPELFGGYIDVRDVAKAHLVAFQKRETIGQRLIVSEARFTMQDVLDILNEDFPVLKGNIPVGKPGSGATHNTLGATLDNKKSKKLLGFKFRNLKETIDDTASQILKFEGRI

SpyCatcher003 (designed binder) yielded a fold slower than SpyTag003 as a terminal fusion in the assay with sfGFP-SpyTag003 Loop A [1] of 6000 fold. The second-order rate constant in the assay with sfGFP-SpyTag003 Loop A [2] was found to be 87 M⁻¹ s⁻¹; in assay [3], 93 M⁻¹ s⁻¹.

For the origin of these results see US20240182530A1.
